Each block holds one binder with its values, some of them ahead of it.
Target: T1, HA-tagged full-length human LGR7 expressed on cells (HA-LGR7/DG44, HA-LGR7/BaF3) (human, UniProt Q9HBX9 1-757)
T1 construct: Full-length human LGR7 with an N-terminal HA tag, forcedly expressed in DG44 (CHO-derived) or Ba/F3 cells; also called HA-LGR7/DG#24; HA-LGR7/DG44#24
T1 sequence: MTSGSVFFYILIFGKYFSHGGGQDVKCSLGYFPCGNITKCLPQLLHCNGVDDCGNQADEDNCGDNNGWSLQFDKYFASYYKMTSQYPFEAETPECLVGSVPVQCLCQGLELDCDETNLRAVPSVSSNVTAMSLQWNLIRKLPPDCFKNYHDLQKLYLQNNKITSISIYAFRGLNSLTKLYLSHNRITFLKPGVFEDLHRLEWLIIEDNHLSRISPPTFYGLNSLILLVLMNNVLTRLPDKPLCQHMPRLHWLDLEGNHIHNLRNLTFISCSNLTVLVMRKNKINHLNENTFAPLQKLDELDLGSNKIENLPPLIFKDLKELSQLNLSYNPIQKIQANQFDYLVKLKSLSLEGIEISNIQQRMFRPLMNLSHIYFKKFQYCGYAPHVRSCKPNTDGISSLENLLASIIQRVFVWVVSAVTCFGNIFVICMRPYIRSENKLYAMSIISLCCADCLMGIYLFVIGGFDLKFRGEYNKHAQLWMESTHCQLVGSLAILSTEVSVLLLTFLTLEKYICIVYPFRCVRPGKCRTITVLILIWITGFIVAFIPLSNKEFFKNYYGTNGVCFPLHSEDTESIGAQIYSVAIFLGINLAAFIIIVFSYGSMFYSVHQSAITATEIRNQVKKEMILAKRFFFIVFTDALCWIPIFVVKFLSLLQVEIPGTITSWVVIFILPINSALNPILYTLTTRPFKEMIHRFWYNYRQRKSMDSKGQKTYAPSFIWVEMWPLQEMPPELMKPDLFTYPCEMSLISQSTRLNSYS
Test: flow cytometry, hybridoma supernatant on LGR7-expressing DG44 cells against parental DG44 cells
Experimental: The binding of the obtained hybridomas to human LGR7/DG44 cells was evaluated by flow cytometry. The cell line expressing human LGR7 suspended in FACS buffer (2% FBS/PBS/0.05% NaN₃) was diluted to 1×10⁶ cells/mL using FACS buffer, and this was aliquoted into a Falcon 353910 round-bottom 96-well plate at 50 μL/well. The hybridoma culture supernatant diluted to a suitable concentration was added to the wells containing the cells, and this was reacted for 60 minutes on ice. Next, the cells were rinsed once with FACS buffer. As a secondary antibody, a goat F(ab′)₂ fragment anti-mouse IgG Fcγ-FITC (Beckman Coulter) was added to the wells containing the cells, and this was reacted for 30 minutes on ice. After the reaction, the supernatant was removed by centrifugation, and the cells were suspended in 100 μL of FACS buffer, and subjected to flow cytometry. The FACS Calibur (Becton Dickinson) was used for the flow cytometry. A gate for the viable cell population was established using a forward scatter/side scatter dot blot, and an FL1 histogram was produced for the cells included in the population, and their binding activity was evaluated.
The hybridoma supernatants were reacted with DG44 cells induced to express LGR7 and the parental DG44 cells, respectively. Thus, hybridomas that specifically react with LGR7-expressing cells were obtained. The hybridomas from the wells were made into single clones by the limiting dilution method. The isotype of each antibody was analyzed using an IsoStrip® mouse monoclonal antibody isotyping kit (Roche Diagnostics). As a result, the isotype of 22DA6, 22DA7, 22DA11, 22DA12, 22DA23, and 22DA24 is IgG1; and the isotype of 22DA4, 22DA10, 22SD7, 22SD25, 22SD31, and 22SD48 is IgG2a; and the isotype of 22DA17 and 22DA20 is IgG2b. Expansion culture of a single-clone hybridoma was performed, and then the antibody was purified from the culture supernatant using a protein G column according to the manual. The purified antibody was subjected to protein quantification by DC Protein Assay, etc.

binding result: binds
B1: 22DA17 (antibody, IgG2b, V domains shown)
VH: QVQLQQSGAELVRPGVSVKLSCKASGYSLTTYWMNWVKQRPGQGLEWIGMIHPSDSETVINQKFKDKATLTVDKSSSTAYMQLSSPTSEDSAVYYCARWDYDYYFDYWGQGTTLTVSS
VL: DVLMTQTPLSLPVSLGDQASISCRSSQSIVHSNGNTYLEWYLQKPGQSPNLLIYKVSNRFSGVPDRFSGSGSGTDFTLKISRVEAEDLGVYYCFQGSHVPFTFGSGTKLEIK
notes: Mouse hybridoma antibody, isotype IgG2b; also called Bio-22DA17 (biotinylated form)

binding result: binds
B2: 22DA23 (antibody, IgG1, V domains shown)
VH: EIQLQQSRPELVRPGASVKVSCQASGYAFTNYNMYWVKQSHGKSLEWIGYIDPYNDDTTYNQKFKGKATLTVDKSSSTAYMHLNSLTSEDSAVFYCARFRLGYYAMDYWGQGASVTVSS
VL: DIVLTQSPASLAVSLGQRATISCKASQSVDYDLDSYMNWYQQKPGQPPKLLIYVASNLESGIPARFSGSGSGTDFTLNIHPVEEEDAATYYCQQSNEDPFTFGSGTKLEIK
notes: Mouse hybridoma antibody, isotype IgG1; also called anti-human LGR7 monoclonal antibody 22DA23

binding result: binds
B3: 22SD7 (antibody, IgG2a, V domains shown)
VH: QVQLQQPGAELVRPGASVKLSCKASGYTFTSYWMNWVKQRPEQGLEWIGRIDPYDSETHYNQKFKDKAILTVDKSSSTAYMQLSSLTSEDSAVYYCARWEVVAPWDYWGQGTTLTVSS
VL: DIVMTQAAPSVPVTPGESVSISCRSSKSLLHSNGNTYLYWFLQRPGQSPQLLIYRMSNLASGVPDRFSGSGSGTAFTLRISRVEAEDVGVYYCMQHLEYPWTFGGGTKLEIK
notes: Mouse hybridoma antibody, isotype IgG2a; also called anti-LGR7 monoclonal antibody 22SD7

From patent US20120014870A1 (FORERUNNER PHARMA RESEARCH, published 2012)
